Assay results as given in the supplement of paper PMC10724198.
± gives the standard deviation of the averaged measurements.

Tests used:
[1] = test system: Saccharomyces cerevisiae; experiment: protein stability index of tFT-peptide fusion (C-terminal peptide) (PSI (0-1 scale)); higher = more stable (slower turnover); conditions: genetic background: wild type; temperature: 30 C
[2] = test system: Saccharomyces cerevisiae; experiment: as above
Protocol: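 MPS profiling in S. cerevisiae of the tFT-X12 degron library: putative degron peptides plus stable controls, 12 aa, fused to the C-terminus of a sfGFP-mCherry timer. Cells are FACS-sorted into 8 mCherry/sfGFP bins and deep-sequenced. PSI runs from 0 (unstable) to 1 (stable). Backgrounds are wild type, das1Δ and doa10Δ at 30 °C, and wild type, das1Δ, cdc34-1 and cdc53-1 at 37 °C; 2-3 technical replicates each.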

[3] = genetic background: cdc34-1, temperature: 37 C
[4] = genetic background: cdc53-1, temperature: 37 C
[5] = genetic background: das1 deletion, temperature: 30 C
[6] = genetic background: das1 deletion, temperature: 37 C
[7] = genetic background: doa10 deletion, temperature: 30 C
[8] = genetic background: wild type, temperature: 30 C
[9] = genetic background: wild type, temperature: 37 C
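Note: PSI is a weighted mean of sequencing reads over stability bins, variants kept only with over 10 reads, mCherry proximal and sfGFP distal, peptide attached via GGGS linker.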

Row | Sequence | protein stability index [1] | protein stability index [2, 3] | protein stability index [2, 4] | protein stability index [2, 5] | protein stability index [2, 6] | protein stability index [2, 7] | protein stability index [2, 8] | protein stability index [2, 9]
1 | LVLLIQKFLTDK | 0.553 ± 0.086 | 0.7442 ± 0.0063 | 0.7187 ± 0.0016 | 0.609 ± 0.024 | 0.695 ± 0.079 | 0.59 ± 0.017 | 0.617 ± 0.052 | 0.675 ± 0.015
2 | FLFSSLFCFLFL | 0.433 ± 0.01 | 0.461 ± 0.035 | 0.428 ± 0.0099 | 0.474 ± 0.021 | 0.565 ± 0.029 | 0.571 ± 0.018 | 0.46 ± 0.018 | 0.527 ± 0.0061
3 | PPGSPPGSLRPT | 0.78 ± 0.025 | 0.67 ± 0.038 | 0.715 ± 0.027 | 0.664 ± 0.026 | 0.713 ± 0.013 | 0.662 ± 0.029 | 0.665 ± 0.036 | 0.703 ± 0.013
4 | VCLRICLVTLMM | 0.428 ± 0.03 | 0.3 ± 0.019 | 0.444 ± 0.011 | 0.284 ± 0.032 | 0.4615 ± 0.0026 | 0.2405 ± 0.0017 | 0.261 ± 0.033 | 0.4126 ± 0.0014
5 | VLDFSVPRHVLH | 0.707 ± 0.024 | 0.696 ± 0.014 | 0.7655 ± 0.0041 | 0.66 ± 0.0056 | 0.7364 ± 0.0016 | 0.661 ± 0.013 | 0.678 ± 0.035 | 0.7472 ± 0.0033
6 | LLYYQVFKTRRL | 0.406 ± 0.25 | 0.674 ± 0.021 | 0.686 ± 0.037 | 0.63 ± 0.026 | 0.696 ± 0.034 | 0.3565 ± 0.0012 | 0.384 ± 0.022 | 0.5958 ± 0.0036
7 | SMPWFWFVRGIG | 0.461 ± 0.0082 | 0.497 ± 0.041 | 0.531 ± 0.0014 | 0.5 ± 0.017 | 0.557 ± 0.0094 | 0.438 ± 0.032 | 0.417 ± 0.013 | 0.5186 ± 0.0039
8 | VSFLLYNFLSVF | 0.101 ± 0.0017 | 0.286 ± 0.0083 | 0.418 ± 0.0077 | 0.346 ± 0.028 | 0.4643 ± 0.0021 | 0.053 ± 0.019 | 0.0707 ± 0.012 | 0.0652 ± 0.015
9 | GDFYCSSVVLVV | 0.306 ± 0.0044 | 0.401 ± 0.013 | 0.401 ± 0.036 | 0.332 ± 0.032 | 0.484 ± 0.018 | 0.278 ± 0.014 | 0.32 ± 0.031 | 0.445 ± 0.0082
10 | FYLSFWFLIFFF | 0.312 ± 0.0092 | 0.227 ± 0.011 | 0.251 ± 0.023 | 0.273 ± 0.031 | 0.353 ± 0.029 | 0.325 ± 0.036 | 0.215 ± 0.036 | 0.315 ± 0.017
